The values that follow come from article PMC9894173 (Proceedings of the National Academy of Sciences of the …, 2022).

The target in this experiment is His6-FLAG-MBP-tagged DHX15 (aa 113–795) (human, UniProt O43143 113-795). The experiment in a line: co-IP.
Chain of His6-FLAG-MBP-tagged DHX15 (aa 113–795) (O43143 113-795): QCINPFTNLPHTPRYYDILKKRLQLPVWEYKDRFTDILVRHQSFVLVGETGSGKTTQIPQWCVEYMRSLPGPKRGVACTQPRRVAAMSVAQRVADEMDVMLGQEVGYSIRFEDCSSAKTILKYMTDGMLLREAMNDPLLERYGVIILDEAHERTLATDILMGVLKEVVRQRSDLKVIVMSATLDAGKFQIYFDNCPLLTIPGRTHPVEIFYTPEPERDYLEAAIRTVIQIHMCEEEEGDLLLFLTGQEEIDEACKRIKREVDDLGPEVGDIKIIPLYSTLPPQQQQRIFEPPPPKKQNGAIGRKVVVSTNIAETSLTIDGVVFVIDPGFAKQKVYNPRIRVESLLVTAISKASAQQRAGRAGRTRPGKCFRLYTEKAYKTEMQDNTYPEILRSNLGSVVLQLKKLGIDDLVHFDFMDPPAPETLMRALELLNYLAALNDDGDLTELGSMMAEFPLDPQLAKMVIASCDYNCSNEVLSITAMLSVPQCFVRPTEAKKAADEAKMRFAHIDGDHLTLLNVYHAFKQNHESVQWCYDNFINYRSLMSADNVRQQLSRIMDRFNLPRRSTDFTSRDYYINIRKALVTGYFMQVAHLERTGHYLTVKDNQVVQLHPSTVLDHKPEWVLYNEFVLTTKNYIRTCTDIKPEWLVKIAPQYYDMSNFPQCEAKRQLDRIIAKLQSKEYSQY

B1: His6-HA-tagged SUGP1 WT (full length) (natural protein)
chain: MSLKMDNRDVAGKANRWFGVAPPKSGKMNMNILHQEELIAQKKREIEAKMEQKAKQNQVASPQPPHPGEITNAHNSSCISNKFANDGSFLQQFLKLQKAQTSTDAPTSAPSAPPSTPTPSAGKRSLLISRRTGLGLASLPGPVKSYSHAKQLPVAHRPSVFQSPDEDEEEDYEQWLEIKVSPPEGAETRKVIEKLARFVAEGGPELEKVAMEDYKDNPAFAFLHDKNSREFLYYRKKVAEIRKEAQKSQAASQKVSPPEDEEVKNLAEKLARFIADGGPEVETIALQNNRENQAFSFLYEPNSQGYKYYRQKLEEFRKAKASSTGSFTAPDPGLKRKSPPEALSGSLPPATTCPASSTPAPTIIPAPAAPGKPASAATVKRKRKSRWGPEEDKVELPPAELVQRDVDASPSPLSVQDLKGLGYEKGKPVGLVGVTELSDAQKKQLKEQQEMQQMYDMIMQHKRAMQDMQLLWEKAVQQHQHGYDSDEEVDSELGTWEHQLRRMEMDKTREWAEQLTKMGRGKHFIGDFLPPDELEKFMETFKALKEGREPDYSEYKEFKLTVENIGYQMLMKMGWKEGEGLGSEGQGIKNPVNKGTTTVDGAGFGIDRPAELSKEDDEYEAFRKRMMLAYRFRPNPLNNPRRPYY
Regarding B1, the binding result is “binds”.
